Data on eight molecules can be found in article PMC6642198 (Scientific Reports, 2019).

Series [1] deals with T1, KCTD1 (full-length, residues 1-257) (human), Q719H9.
T1 chain: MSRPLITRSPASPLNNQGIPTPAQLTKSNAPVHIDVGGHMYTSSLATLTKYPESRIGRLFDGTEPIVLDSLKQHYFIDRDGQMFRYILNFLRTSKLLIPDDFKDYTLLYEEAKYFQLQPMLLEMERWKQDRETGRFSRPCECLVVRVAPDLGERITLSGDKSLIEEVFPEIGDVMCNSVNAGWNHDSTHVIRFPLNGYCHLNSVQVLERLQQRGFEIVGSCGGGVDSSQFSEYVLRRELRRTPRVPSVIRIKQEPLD
The series is described as follows: SEC; analytical size-exclusion chromatography, Superdex 200 10/30, Tris-HCl 20 mM pH 7.8, NaCl 100 mM, glycerol 5%, CHAPS 0.01%, DTT 4 mM; column calibrated with marker proteins; number of chains from apparent over theoretical monomer molecular weight. Conditions: remark: other sources report otherwise. For orientation: SEC sorts molecules by how far they enter the pores of the column.

Series [2] concerns the molecule itself. Described as above.

Changes are numbered by the printed parent chain. In names and notes the source's numbering stands.

B1: KCTD1 (full-length, residues 1-257), Q719H9 1-257 (natural protein)
chain: T1 chain
By stoichiometry N is commonly meant the number of molecules, sites or subunits per partner or assembly. With B1, in series [1], the stoichiometry N was 4.5.

B2: KCTD1^P20S (full-length KCTD1 with the SEN-causing mutation P20S) (natural protein, human, UniProt Q719H9 1-257, looked up)
chain: T1 chain with P20S
notes: KCTD1, full-length protein, residues 1-257, disease-causing missense variant P20S; the mutation occurs in families with SEN syndrome; also called KCTD^P20S; source: E. coli BL21(DE3), purified (His-trap, TEV digestion, Superdex 200); not shown: polyHis, N-terminal, cleaved
As to B2, in series [2], the binding result is “binds”.

B3: KCTD1^H74P (full-length KCTD1 with the SEN-causing mutation H74P) (natural protein, human, UniProt Q719H9 1-257, looked up)
chain: T1 chain with H74P
notes: KCTD1, full-length protein, residues 1-257, disease-causing missense variant H74P; the mutation occurs in families with SEN syndrome; also called KCTD^H74P; source: E. coli BL21(DE3), purified (His-trap, TEV digestion, Superdex 200); not shown: polyHis, N-terminal, cleaved
Consider B3, for which, in series [2], the binding result is reported as “binds”.

B4: KCTD1^D69E (full-length KCTD1 with the SEN-causing mutation D69E) (natural protein, human, UniProt Q719H9 1-257, looked up)
chain: T1 chain with D69E
notes: KCTD1, full-length protein, residues 1-257, disease-causing missense variant D69E; the mutation occurs in families with SEN syndrome; also called KCTD^D69E; source: E. coli BL21(DE3), purified (His-trap, TEV digestion, Superdex 200); not shown: polyHis, N-terminal, cleaved
For the molecule B4, the binding result in series [2] is reported as “binds”.

B5: KCTD1^H33P (full-length KCTD1 with the SEN-causing mutation H33P) (natural protein, human, UniProt Q719H9 1-257, looked up)
chain: T1 chain with H33P
notes: KCTD1, full-length protein, residues 1-257, disease-causing missense variant H33P; the mutation occurs in families with SEN syndrome; also called KCTD^H33P; source: E. coli BL21(DE3), purified (His-trap, TEV digestion, Superdex 200); not shown: polyHis, N-terminal, cleaved
For the molecule B5, the binding result in series [2] is reported as “binds”.

B6: KCTD1^G62D (full-length KCTD1 with the SEN-causing mutation G62D) (natural protein, human, UniProt Q719H9 1-257, looked up)
chain: T1 chain with G62D
notes: KCTD1, full-length protein, residues 1-257, disease-causing missense variant G62D; the mutation occurs in families with SEN syndrome; One sentence of the modelling section prints Gly62Glu; everywhere else G62D; also called KCTD^G62D; source: E. coli BL21(DE3), purified (His-trap, TEV digestion, Superdex 200); not shown: polyHis, N-terminal, cleaved
B6: in series [2], the binding result is given as “binds”.

B7: KCTD1 C-terminal domain (KCTD1^CTD, residues 134-235) (domain or fragment, human, UniProt Q719H9 134-235, looked up)
chain: GRFSRPCECLVVRVAPDLGERITLSGDKSLIEEVFPEIGDVMCNSVNAGWNHDSTHVIRFPLNGYCHLNSVQVLERLQQRGFEIVGSCGGGVDSSQFSEYVL
notes: KCTD1, C-terminal domain, residues 134-235; The sentences on expression host and on TEV removal of the tag list KCTD1, KCTD1^BTB and the point mutants but not KCTD1^CTD; source: recombinantly expressed (pETM11), purified (Superdex 200)
B7: in series [2], the “stoichiometry N” value is ~4.5.

B8: KCTD1 BTB domain (KCTD1^BTB, residues 1-135) (domain or fragment, human, UniProt Q719H9 1-135, looked up)
chain: MSRPLITRSPASPLNNQGIPTPAQLTKSNAPVHIDVGGHMYTSSLATLTKYPESRIGRLFDGTEPIVLDSLKQHYFIDRDGQMFRYILNFLRTSKLLIPDDFKDYTLLYEEAKYFQLQPMLLEMERWKQDRETGR
notes: KCTD1, pre-BTB region and BTB domain, residues 1-135; source: E. coli BL21(DE3), purified (His-trap, TEV digestion, Superdex 200); not shown: polyHis, N-terminal, cleaved
Take B8: in series [2], the “stoichiometry N” value is ~4.5.
